Source: US20230383007A1 (BIOSION, published 2023)

Experiments:
[1] = molecular target: T1, human TROP2-his protein (human, UniProt P09758 27-274); assay: indirect ELISA, plate coated with human TROP2-his; unit taken from the x axis (Con of mAb, ng/mL)
T1 construct: also called biotin labeled human TROP2-his protein
T1 sequence: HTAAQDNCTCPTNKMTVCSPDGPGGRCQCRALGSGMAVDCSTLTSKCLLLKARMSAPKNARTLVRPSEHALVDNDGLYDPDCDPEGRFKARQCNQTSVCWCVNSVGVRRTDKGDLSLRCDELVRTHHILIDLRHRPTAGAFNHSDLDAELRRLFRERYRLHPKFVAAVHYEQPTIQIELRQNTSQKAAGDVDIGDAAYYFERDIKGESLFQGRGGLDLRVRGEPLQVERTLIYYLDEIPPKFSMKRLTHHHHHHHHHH
Procedure: The single domain antibodies of the disclosure were tested in the indirect ELISA for their cross-reaction with cynomolgus TROP2 protein. Briefly, 96-well micro plates were coated with 100 μl 2 μg/ml human TROP2-his protein (prepared in-house with SEQ ID NO: 16) in carbonate/bicarbonate buffer (pH 9.6) overnight at 4° C. ELISA plates were washed once with wash buffer (PBS+0.05% v/v Tween-20, PBST) and then blocked with 200 μl/well blocking buffer (5% w/v non-fatty milk in PBST) for 2 hours at 37° C. Plates were washed 4 times and incubated with 100 μl/well serially diluted anti-TROP2 antibodies of the disclosure or controls (starting at 66.7 nM, 5-fold serial dilution in 2.5% w/v non-fatty milk in PBST) for 40 minutes at 37° C. ELISA plates were washed 4 times again and incubated with Peroxidase AffiniPure F(ab′)₂ Fragment Goat Anti-Human IgG, Fey fragment specific (Jackson Immuno Research, Cat #109-036-098, 1:5000 dilution in PBST buffer, 100 μl/well) for 40 minutes at 37° C. After a final wash, plates were incubated with 100 μl/well TMB (Innoreagents) at room temperature. The reaction was stopped 3-10 minutes later at room temperature with 50 μl/well 1M H₂SO₄, and the absorbance of each well was read on a microplate reader using dual wavelength mode with 450 nm for TMB and 630 nm as the reference wavelength. The OD (450-630) values were plotted against antibody concentration. Data was analyzed using Graphpad Prism software and EC₅₀ values were reported.

[2] = molecular target: T2, cynomolgus TROP2-his protein (cynomolgus, UniProt P09758 27-272 (human entry), limits assumed); assay: SPR Biacore T200; antibody captured on anti-human IgG CM5 chip, TROP2-his as analyte in 2-fold dilutions from 160 nM; 1:1 Langmuir fit
T2 construct: also called Cyno TROP2-his; Cynomolgus monkey TROP2-his protein
T2 chain: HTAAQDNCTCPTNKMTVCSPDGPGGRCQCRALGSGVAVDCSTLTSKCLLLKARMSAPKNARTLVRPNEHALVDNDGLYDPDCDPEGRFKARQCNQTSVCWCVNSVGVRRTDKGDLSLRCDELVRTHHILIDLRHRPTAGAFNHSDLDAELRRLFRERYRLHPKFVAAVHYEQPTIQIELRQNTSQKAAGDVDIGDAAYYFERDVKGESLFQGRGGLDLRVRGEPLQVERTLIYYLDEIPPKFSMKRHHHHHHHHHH
Text: (§1) The purified anti-TROP2 mouse monoclonal antibodies (mAbs) were characterized for binding affinity and binding kinetics by Biacore T200 system (GE healthcare, Pittsburgh, PA, USA). Briefly, goat anti-human IgG (GE healthcare, Cat #BR100839, Human Antibody Capture Kit) was covalently linked to a CM5 chip (carboxy methyl dextran coated chip from GE healthcare #BR100530) via primary amines, using a standard amine coupling kit (GE healthcare, Pittsburgh, PA, USA) provided by Biacore. Un-reacted moieties on the chip (biosensor) surface were blocked with ethanolamine. The anti-TROP2 antibodies of the disclosure and the benchmark at the concentration of 2 μg/ml were respectively flowed onto the chip at a flow rate of 10 μL/min. Then, serially diluted human TROP2-his protein (prepared in-house with SEQ ID NO: 16), or cynomolgus TROP2-his protein (prepared in-house with SEQ ID NO: 19), 2-fold dilution in HBS-EP⁺ buffer (provided by Biacore) starting at 160 nM, were flowed onto the chip at a flow rate of 30 μL/min. The antigen-antibody association kinetics was followed for 2 minutes and the dissociation kinetics was followed for 10 minutes. The association and dissociation curves were fit to a 1:1 Langmuir binding model using BIAcore evaluation software.

[3] = molecular target: T1, human TROP2-his protein; assay: as above
Text: as §1

[4] = molecular target: T2, cynomolgus TROP2-his protein; assay: indirect ELISA, plate coated with 1 ug/ml TROP2-his; bacterial culture supernatant
Procedure: (§2) ELISA plates were coated with 100 μl 1 μg/ml human TROP2-his protein (in house made with SEQ ID NO: 16), or 1 μg/ml cynomolgus TROP2-his protein (in house made with SEQ ID NO: 19) in carbonate/bicarbonate buffer (pH 9.6) overnight at 4° C., washed once with wash buffer (PBS+0.05% v/v Tween-20, PBST) and then blocked with 200 μl/well blocking buffer (5% w/v non-fatty milk in PBST) for 2 hours at 37° C. Plates were washed 4 times, and respectively incubated with 100 μl bacterial culture supernatant, and sacituzumab (used as the benchmark, also referred to as BM or BM1 hereinafter, in house made with heavy chain and light chain amino acid sequences set forth in SEQ ID NOs: 17 and 18) in 5% w/v non-fatty milk in PBST at 200 ng/ml, for 40 minutes at 37° C. The plates were washed 4 times, and incubated with THE™ HA Tag Antibody [HRP], mAb, Mouse Antibody (1:5000 dilution in PBST, GenScript, Cat #A01296, 100 μl/well, for plates with bacterial culture supernatans of the disclosure) or Peroxidase AffiniPure F(ab′)₂ Fragment Goat Anti-Human IgG, Fey fragment specific (Jackson Immunoresearch, Cat #109-036-098, for plates with the benchmark), for 40 minutes at 37° C. After a final wash, plates were incubated with 100 μl/well ELISA substrate TMB (Innoreagents, Cat #TMB-S-002) at room temperature. The reaction was stopped in 3-10 minutes with 50 μl/well 1M H₂SO₄, and the absorbance of each well was read on a microplate reader using dual wavelength mode with 450 nm for TMB and 630 nm as the reference wavelength. When the OD of a sample well was 2 times higher than the OD of the blank well, the sample can be determined as positive.

[5] = molecular target: T1, human TROP2-his protein; assay: as above
Procedure: as §2

[6] = molecular target: T1, human TROP2-his protein; assay: competitive ELISA: antibody pre-mixed with biotin labeled human TROP2-his, added to plate coated with the benchmark (sacituzumab analog); unit taken from the x axis (ng/mL)
Procedure: The anti-TROP2 antibodies were tested for their epitope binding in a competitive ELISA assay. Briefly, 100 μl of the benchmark at 1 μg/mL in PBS was coated on 96-well micro plates for 2 hours at 37° C. ELISA plates were washed once with wash buffer (PBS+0.05% v/v Tween-20, PBST) and then blocked with 200 μl blocking buffer (5% w/v non-fatty milk in PBST) for 2 hours at 37° C. While blocking, the anti-TROP2 antibodies of the disclosure or controls were diluted with biotin labeled human TROP2-his protein (SEQ ID NO: 16, 34 ng/mL in 2.5% w/v non-fatty milk in PBST), starting at 80 nM with a 5-fold serial dilution, and incubated at room temperature for 40 minutes. After plate washing 4 times, the antibody/TROP2-his protein mixtures were added to benchmark coated plates, 100 μl per well. After incubation at 37° C. for 40 minutes, plates were washed 4 times again using wash buffer. Then the plates were added and incubated with 100 μl Peroxidase Streptavidin (1:10000 dilution in PBST buffer, Jackson Immunoresearch, Cat #016-030-084) for 40 minutes at 37° C. Plates were washed again using wash buffer. […] The absorbance of each well was read on a microplate reader using dual wavelength mode with 450 nm for TMB and 630 nm as the reference wavelength, and the OD (450-630) values were plotted against antibody concentration. Data was analyzed using Graphpad Prism software and IC₅₀ values were reported.

EC50 [1]: 0.0177 mg/L
Kd [2]: 0.647 nM
koff [2]: 0.000172 s⁻¹
kon [2]: 266000 M⁻¹ s⁻¹
Kd [3]: 0.0975 nM
koff [3]: 2.73e-05 s⁻¹
kon [3]: 280000 M⁻¹ s⁻¹
Indirect ELISA OD (450-630) [4]: 0.56 OD (450-630)
Indirect ELISA OD (450-630) [5]: 1.03 OD (450-630)
IC50 [6]: 0.0417 mg/L
B1: single domain antibody 01-5A (VHH)
VHH: QVQLVESGGGTVGAGGSLRLSCVVSGLPYERYCVAWFRQGPGKEREGVARILSDGTTSYSDSVKGRFTISKDNAKNTLYLQMNSLKSEDTATYYCAAEAFRPFTPSDGDCTTVLGIDYWGKGTLVTVSS
